Results published in patent US8734776B2 (ZymoGenetics, Inc., priority 2003, dated 2014).

Tests used:
BVDV = BVDV CPE inhibition assay in MDBK cells; type: cell-based; conditions: MDBK bovine kidney cells
Method: IFNα and RIBAVIRIN® were used as positive controls. Test sample were added at the time of viral infection.

pichinde virus = type: cell-based
[1] = system: respiratory syncytial virus; type: cell-based; conditions: MA-104 cells
HHV-8 = HHV-8 replication in BCBL-1 cells (TaqMan PCR)
[2] = system: respiratory syncytial virus; type: cell-based; conditions: MA-104 cells; remark: listed apart in the source
[3] = system: ISG gene expression (OAS, Pkr, Mx1); assay: ISG gene induction in liver, spleen and blood of injected mice; type: in vivo, mouse; conditions: for OAS (24 hr): mice, expression relative to internal HPRT; for OAS- 1 hr: 1 hr after single injection of 250 μg i.v.; for OAS- 1 hr / OAS-6 hr / OAS-24 hr / OAS-48 hr: average of 5 animals; for OAS-6 hr: 6 hr after single injection of 250 μg i.v.; for OAS-24 hr: 24 hr after single injection of 250 μg i.v.; for OAS-48 hr: 48 hr after single injection of 250 μg i.v.
Method: In addition, E. coli derived IL-29 was also tested in in vivo assays as described above using MetIL-29C172S-PEG and MetIL-29-PEG. At various time points and at different doses, ISG gene induction was measured in the blood, spleen and livers of the mice.
Mice were sacrificed at various time points (1 hr-48 hr). Spleens and livers were isolated from mice, and RNA was isolated. RNA was also isolated from the blood cells. The cells were pelleted and RNA isolated from pellets using RNAEasy®-kit (Qiagen). RNA was treated with DNase (Amicon) to rid RNA of any contaminating DNA. cDNA was generated using Perkin-Elmer RT mix (Perkin-Elmer). ISG gene induction was measured by real-time PCR using primers and probes specific for mouse OAS, Pkr and M×1. To obtain quantitative data, HPRT real-time PCR was duplexed with ISG PCR. A standard curve was calculated using known amounts of IFN-stimulated mouse PBLs. All data are shown as expression relative to internal HPRT expression.
Results shown are fold expression relative to HPRT gene expression. […] The data shown is the average expression from 5 different animals/group.
Data shown is fold expression over HPRT expression from livers of mice. Similar data was obtained from blood and spleens of mice.

[4] = system: venezuelan equine encephalitis virus; type: cell-based; conditions: Vero cells
adenovirus = type: cell-based; conditions: A549 cells

B1: IL-29: human IL-29, previously designated zcyto21, SEQ ID NO:4 (protein, listed as Homo sapiens)
chain: MAAAWTVVLVTLVLGLAVAGPVPTSKPTTTGKGCHIGRFKSLSPQELASFKKARDALEESLKLKNWSCSSPVFPGNWDLRLLQVRERPVALEAELALTLKVLEAAAGPALEDVLDQPLHTLHHILSQLQACIQPQPTAGPRPRGRLHHWLHRLQEAPKKESAGCLEASVTFNLFRLLTRDLKYVADGNLCLRTSTHPEST
modifications: SIGNAL (1)...(19)
IC50 inhibition of cell death induced by BVDV (BVDV): 0.19 µg/mL | EC50 Visual (pichinde virus): >10 µg/mL | IC50 Visual (pichinde virus): >10 µg/mL | EC50 NR [1]: >10 µg/mL | IC50 NR [1]: >10 µg/mL | TI (TC50/IC50) (HHV-8): > 1.85 | IC50 HHV-8 viral replication (HHV-8; extracellular HHV-8 DNA): 6.5 µg/mL | EC50 Visual [2]: >10 µg/mL | IC50 Visual [2]: >10 µg/mL | time of peak expression of ISGs after injection ([3]; C57BL/6 mice): 1 to 6 h | ISG gene expression (OAS, Pkr, Mx1) in the livers, spleen and blood of mice ([3]; C57BL/6 mice, i.p or i.v, 10 μg-250 μg): induced ISG gene expression | OAS (24 hr) ([3]; injection 10 μg): 3.7 | OAS (24 hr) ([3]; injection 50 μg): 4.2 | OAS (24 hr) ([3]; injection 250 μg): 6 | OAS- 1 hr ([3]; mouse blood): 12 fold expression relative to HPRT gene expression | OAS-6 hr ([3]; mouse blood): 18 fold expression relative to HPRT gene expression | OAS-24 hr ([3]; mouse blood): 11 fold expression relative to HPRT gene expression | OAS-48 hr ([3]; mouse blood): 10 fold expression relative to HPRT gene expression | OAS- 1 hr ([3]; mouse liver): 2.5 fold expression relative to HPRT gene expression | OAS-6 hr ([3]; mouse liver): 4 fold expression relative to HPRT gene expression | OAS-24 hr ([3]; mouse liver): 2.5 fold expression relative to HPRT gene expression | OAS-48 hr ([3]; mouse liver): 2.8 fold expression relative to HPRT gene expression | OAS- 1 hr ([3]; mouse spleen): 4 fold expression relative to HPRT gene expression | OAS-6 hr ([3]; mouse spleen): 6 fold expression relative to HPRT gene expression | OAS-24 hr ([3]; mouse spleen): 3.2 fold expression relative to HPRT gene expression | OAS-48 hr ([3]; mouse spleen): 3.2 fold expression relative to HPRT gene expression | EC50 Visual [4]: 0.012 µg/mL | IC50 Visual [4]: >10 µg/mL | EC50 NR (adenovirus): >10 µg/mL | IC50 NR (adenovirus): >10 µg/mL
